From article PMC5641094, “A peptide antagonist of Prep1-p160 interaction improves ceramide-induced insulin resistance in skeletal muscle cells” (Oncotarget, 2017)
Values belong to the molecule of their own block, whether it stands above or below them.

Columns and labels:
L6 cells [1] = assay: FACS analysis of peptide uptake in L6 cells; type: cell-based, rat; settings: FITC-conjugated peptide, increasing concentrations, in the presence of liposomes, harvested 48h later, FACS FL-1, four experiments
Description: Figure 3 Design and in vitro effects of Prep1(54-72) peptide on Prep1/p160 association (A) Binding curves of Prep1(59-72) and Prep1(54-72) peptides to p160_20-160 by ELISA-like assays. Biotinylated peptides at several concentrations were added in triplicate to a 96-well plate coated with p160_20-160 (0.1μM). Experiments were performed at least twice and the average results fitted using GraphPad Prism. […] (B) Competition binding experiments. His6-tagged-p160_20-160 at 0.25μM was incubated with Prep1(59-72) and Prep1(54-72) at concentrations ranging between 0.001÷10μM and added to a 96-well plate coated with Prep1_45-155 (0.10μM). Results are the average of three independent experiments. (C) L6 cells were incubated with increasing concentrations of the fluorescein-conjugated peptide (FITC-Prep1(54-72)) and peptide uptake was detected by FACS analysis of fluorescein-labeled cells. […] Protein lysates were immunoprecipitated with Prep1 antibodies and analyzed by Western blot using antibodies for p160 or for Prep1. […] The blots were detected by ECL and autoradiography. […]
L6 cells were incubated with negative control (NC) and Prep1(54-72) peptides conjugated with fluorescein isothiocianate (FITC) at different concentrations and harvested 48h later. […] The samples were acquired by a BD LSRFortessa (BD Bioscience, San Jose, CA) and analyzed using BD FACS Diva Software.

L6 cells [2] = assay: Cell toxicity in L6 cells; type: cell-based, rat; settings: 10μM peptide in the presence of liposomes, data not shown
His6-tagged p160(20-160) = target: T1, His6-tagged p160(20-160) (UniProt Q7TPV4 20-160); assay: ELISA; competition ELISA: plate coated with Prep1(45-155) (0.1 uM); His6-tagged p160(20-160) at 0.25 uM pre-incubated with peptides at 0.001-10 uM; detection with anti-His HRP-conjugated antibody; settings: both partners purified
T1 construct: also called His6-p160(20-160); p160(20-160) domain
T1 sequence (looked up): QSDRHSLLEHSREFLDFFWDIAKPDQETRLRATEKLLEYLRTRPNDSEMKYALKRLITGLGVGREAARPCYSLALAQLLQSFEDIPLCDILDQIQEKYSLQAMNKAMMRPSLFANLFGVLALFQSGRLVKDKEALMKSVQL

[3] = target: Prep1 (Pbx regulating protein 1), endogenous in L6 cells (rat (endogenous in L6))

Molecule: FITC-Prep1(54-72): fluorescein-conjugated Prep1(54-72) peptide
peptide uptake into cells (L6 cells [1]): dose-dependent manner | cell toxicity (L6 cells [2]): without inducing any apparent cell toxicity

IC50 (His6-tagged p160(20-160)): 200 nM
B1: Prep1(54-72) peptide (peptide)
peptide: Ac-KQAIYRHPLFPLLALLFEK-NH2
notes: Prep1 (Pbx regulating protein 1), stretch of the HR1 domain, named residues 54-72; Brought into L6 cells in the presence of liposomes for the cell experiments; source: synthetic peptide (Fmoc solid phase, RP-HPLC purified)

decrease in p160 protein level in C2cer-treated L6 cells incubated with Prep1(54-72), Western blot [3]: 25%
B2: p160 myb binding protein, endogenous in L6 cells (natural protein)
chain: MAEMKSPTKAEPASPAEAPQGDRRSLLEHSREFLDFFWDIAKPDQETRLRATEKLLEYLRTRPSDSEMKYALKRLITGLGVGREAARPCYSLALAQLLQSFEDIQLCDILGQIQEKYNLQAMNKAMMRPTLFANLFGVLALFQSGRLVKDKEALMKCVRLLKILSHHYNHLQGQPVKALVDILSEVPESMFQEILPKVLKGDMKVILSSPKYLELFLLARQRVPAELESLVGSVDLFSEDNIPSLVNILKVAANSVKKEQKLPDVALNLLRLALQENKFERFWKEVLEEGLLKKPSYTSSYMCFRLLGASLPLLSDEQLQLVMRGDLIRHFGEHMVVSKSQNPLRFIPEISAYVGTFLEGCQDDPKRQFTVMVAFTAITNQGLPVMPTFWRVTRFLNTEALQNYVTWLRDMFLQPDLDSLVDFSTANQKRVQVASLNVPERTVFRLRKWIIHRLVSLVDHLHLEKDEAVVEQIARFCLFHAFFKTKKATPQIPETKQHFSFPLEDGNRGVIVSAFFSLLQTLSVKFRQTPDLAENGKPWTYRLVQLADMLLKHNRNVANVTPLTAQQRQAWDQMMSTLKELEAQSSETRAIAFQHLLLLVGLHLFKSPAESCDVLGDIQTCIKKSMEQNLRRSRSRAKASQEPVWVEVMVEILLSLLAQPSNLMRQVVRSVFGHVCSHLTPRGLQLILAVLNPETNEDEEDNVVVTDTDEKQLKHGEDADSDSEDSKNSESDVDSEDGEESEEEDRDKDVDPGFRQQLMEVLQAGNALGGEEEEEEELGDEAMMALDQNLASLFAEQKMRIQARHEEKNKLQKEKQLRRDFQIRALDLIEVLVTKQPEHPLILELLEPLLNIIQRSMRSRGSTKQEQDLLHKTARIFMHHLCRARHYCHEVEPGAEALHAQVERLVQQAGNQADASVALYYFNASLYLLRVLKGNTTKRYQDGQKLEGADIKSEPKDSEVQTTSCLDLDFVTRVYSASLESLLTKRNSPLTIPMFLDLFSRYPVICKNLLPIVVQHVAGSSRPRHQAQACLLLQKALSARELRVCFEDPEWEQLISQVLGKTTQTLQTLGEAQSKGEHQRELSILELLNTVFRIVNHEKLSVDLTAFLGMLQGKQQKLQQNLQQGNHSSGSSRLYDLYWQAMNLLGVQRPKSEKKNVKDIPSDSQSPISTKRKKKGFLPETKKRKKLKSEGTTSEKKAASQQDAVTEGAMPAATGKDQPPSTGKKRRKRVKANTPSQVNGVTVAKSPAPNNPTLSPSTPPAKTPKVQKKKEKLSQVNGSTPVSPVEPESKKHQKALSTKEVKRRSSQSALPKKRARLSLVSRSPSLLQSGIRKRRVARRRVQTP
